This experiment has as its target Biotinylated tubulin (bovine brain tubulin labelled with NHS-LC-biotin), held on a streptavidin layer (bovine) (UniProt Q6B856). The experiment in a line: dual polarization interferometry.

On to “Tubulin (alpha/beta heterodimer), purified from bovine brain (from UniProt Q6B856 1-445) (complex)”, for which the rate of thickness increase after the inflection point (microtubule growth) amounted to 0.436 nm/min.
